Legend:
[1] = biological target: T1, binding of CFH to the HIV envelope peptides #SA2 (gp120), #18 and #12 (gp41) (Human immunodeficiency virus type 1 group M subtype B, UniProt P03377); settings: competitor added simultaneously with CFH; ELISA, solid-phase peptides #SA2, #18, #12
T1 construct: His Glu Asp Ile Ile Ser Leu Trp Asp Gln Ser Leu Lys Pro Cys, Env; 105-119; Ile Asn Asn Thr Tyr THr Ser, Env; 621-645; Leu Asp Lys Trp Ala Ser, Env; 650-673; made in house; host or cells: Env peptides: chemical synthesis; CFH: purified from normal human plasma (or fresh plasma used as the CFH source)
T1 sequence (P03377 621-645, other chains not shown): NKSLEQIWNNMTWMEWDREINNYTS

[2] = biological target: T1, binding of CFH to the HIV envelope peptides #SA2 (gp120), #18 and #12 (gp41); settings: target peptides preincubated with competitor, washed, before CFH
Experimental: Synthetic peptides and recombinant proteins were dissolved in Carbonate-bicarbonate buffer, 50 mM, pH 9.2 at 50 μg/ml (micrograms per milliliter) and 10 μg/ml, respectively, distributed in 100 μl aliquots into flat-bottomed 96-well ELISA plates (Greiner, Germany) and left at 37° C. for 3 hours. The plates were then washed three times in phosphate-buffered saline (PBS) and the wells were overcoated with a 3% (w/v) solution of bovine serum albumin (BSA) in PBS. The CFH source (either from fresh plasma or from plasma subjected to subsequent purification steps), was diluted to the appropriate concentration (1 mg/ml) in PBS-BT (=PBS containing 1% BSA and 1% Tween 20), pH 7.0 and exposed to the solid phase for one hour at 37° C. After washing in PBS+1% Tween 20 (=PBS-T), bound CFH was detected by the use of specific, biotin-labelled MAb 5H5, Pinter et al., AIDS Research & Human Retroviruses 11: 971, and peroxidase-labelled streptavidin (Sigma, Italy). The reaction was developed with o-phenylene-diamine/H2 O2 for fifteen minutes and then stopped by the addition of 4N H2 SO4. Absorbance was detected at […] with a MT450 microplate reader (BioRad).
Along with the above-described assay, a preincubation assay was also conducted with peptides. […] The solid phases were washed in PBS-T and CFH was detected with the biotin-labelled MAb 5H5 as previously described.

[3] = biological target: T1, binding of CFH to the HIV envelope peptides #SA2 (gp120), #18 and #12 (gp41); settings: previous work, Pinter et al., AIDS Research & Human Retroviruses 11:577; cited from earlier work
[4] = biological target: T2, binding of peptide A to HIV-derived target peptides #SA2, #12, #18 (Human immunodeficiency virus type 1 group M subtype B, UniProt P03377); assay: Competition of the binding of biotin-labelled peptide A to HIV-derived peptides
T2 construct: His Glu Asp Ile Ile Ser Leu Trp Asp Gln Ser Leu Lys Pro Cys, Env; 105-119; Ile Asn Asn Thr Tyr THr Ser, Env; 621-645; Leu Asp Lys Trp Ala Ser, Env; 650-673; made in house; host or cells: chemical synthesis (synthetic peptides)
Text: This interaction was competed by peptide A itself, by the envelope peptides #SA2 Sequence I.D. #20, #12 Sequence I.D. #22 and #18 Sequence I.D. #21 but not by peptide #53 Sequence I.D. […]. Therefore, the three HIV-derived peptides seem to share functional homology with respect to the interaction with CFH since they all bind to the same region on SEQ. ID NO: 1.

[5] = biological target: CFH (Homo sapiens, UniProt P08603); settings: described in earlier publications of Pinter et al.; cited from earlier work
Sequence of CFH (P08603 19-1231): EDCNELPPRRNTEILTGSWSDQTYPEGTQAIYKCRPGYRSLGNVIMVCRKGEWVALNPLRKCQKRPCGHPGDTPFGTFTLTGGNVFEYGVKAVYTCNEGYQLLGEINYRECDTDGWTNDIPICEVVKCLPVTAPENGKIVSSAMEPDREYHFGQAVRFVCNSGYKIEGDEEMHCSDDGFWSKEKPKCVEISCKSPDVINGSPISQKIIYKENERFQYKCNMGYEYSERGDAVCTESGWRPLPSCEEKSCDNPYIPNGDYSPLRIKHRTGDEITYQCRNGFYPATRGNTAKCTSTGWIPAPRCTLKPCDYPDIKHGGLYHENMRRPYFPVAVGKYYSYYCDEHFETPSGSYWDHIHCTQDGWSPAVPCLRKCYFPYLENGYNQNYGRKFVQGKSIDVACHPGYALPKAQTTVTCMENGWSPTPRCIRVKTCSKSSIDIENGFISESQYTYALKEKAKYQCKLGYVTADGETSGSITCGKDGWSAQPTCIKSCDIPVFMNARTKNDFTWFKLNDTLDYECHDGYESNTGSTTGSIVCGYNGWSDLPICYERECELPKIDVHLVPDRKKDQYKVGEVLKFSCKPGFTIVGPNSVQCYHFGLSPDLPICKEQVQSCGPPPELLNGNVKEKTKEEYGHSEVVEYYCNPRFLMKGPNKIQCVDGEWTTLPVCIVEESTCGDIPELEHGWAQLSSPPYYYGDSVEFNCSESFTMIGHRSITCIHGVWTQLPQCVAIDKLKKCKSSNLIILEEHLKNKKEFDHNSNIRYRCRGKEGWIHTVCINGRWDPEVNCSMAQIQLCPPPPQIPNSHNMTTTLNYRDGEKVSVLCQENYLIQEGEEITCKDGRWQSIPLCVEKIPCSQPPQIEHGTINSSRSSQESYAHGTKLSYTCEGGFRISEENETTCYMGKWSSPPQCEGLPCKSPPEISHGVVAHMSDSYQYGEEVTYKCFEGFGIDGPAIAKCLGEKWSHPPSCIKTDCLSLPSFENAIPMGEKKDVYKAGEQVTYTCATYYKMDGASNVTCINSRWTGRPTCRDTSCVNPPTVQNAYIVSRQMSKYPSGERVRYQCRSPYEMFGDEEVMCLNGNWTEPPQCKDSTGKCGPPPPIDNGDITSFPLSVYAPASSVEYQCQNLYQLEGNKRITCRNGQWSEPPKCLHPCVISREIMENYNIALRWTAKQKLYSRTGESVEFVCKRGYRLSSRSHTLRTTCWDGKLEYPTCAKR

[6] = biological target: T3, gp120-derived peptide #SA2 (Env. 105-119) (Human Immunodeficiency Virus); assay: competition ELISA against CFH binding to the immobilised envelope peptide
T3 peptide: HEDIISLWDQSLKPC

[7] = biological target: T4, gp41-derived peptide #18 (Env. 621-645) (Human Immunodeficiency Virus); assay: as above
T4 peptide: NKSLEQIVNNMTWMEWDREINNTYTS

[8] = biological target: T5, gp41-derived peptide #12 (Env. 650-673) (Human Immunodeficiency Virus); assay: as above
T5 peptide: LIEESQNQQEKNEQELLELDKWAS

[9] = biological target: T3, gp120-derived peptide #SA2 (Env. …); assay: competition ELISA against CFH; inhibition due to interaction of peptide A with the solid phase (preincubation gave the same effect)
[10] = biological target: T4, gp41-derived peptide #18 (Env. 621-645); assay: as above
[11] = biological target: T5, gp41-derived peptide #12 (Env. 650-673); assay: as above

Heparin
competition with the binding of CFH to the HIV envelope peptides [1]: competed | competition with the binding of CFH to the HIV envelope peptides after preincubation [2]: inactive | inhibition of the binding of CFH to HIV and to the target peptides [3]: inhibited

Asn Lys Ser Leu Glu Gln Ile Val Asn Asn Met Thr Trp Met Glu Trp Asp Arg Glu Ile Asn Asn Thr Tyr THr Ser (NKSLEQIVNNMTWMEWDREINNTYTS) [#18, gp41-derived HIV envelope peptide, Env; 621-645]
competition of the binding of biotin-labelled peptide A to HIV-derived peptides [4]: competed | CFH binding to the HIV envelope peptide [5]: targets of CFH binding

KEFDHNSNIRYRCR [peptide b11]
binding result [6]: binds | binding result [7]: binds | binding result [8]: binds

AIDKLKKCKSSNLIILEEHLKNKKEFDHNS [Peptide A]
binding result [9]: binds | binding result [10]: binds | binding result [11]: binds

IRYRCRGKEGWIHTVCINGRWDPEVNCS [Peptide B]
binding result [6]: no binding (tested: 0 to 50 µg/ml) | binding result [7]: no binding (tested: 0 to 50 µg/ml) | binding result [8]: no binding (tested: 0 to 50 µg/ml)

From patent publication US6319890A, “Inhibition of binding of complement Factor H” (priority 1996, dated 2001)
